The text below walks through data of PMC13557712, “Nim1-related kinases regulate septin organization and cytokinesis by modulating Hof1 at the cell division site” (eLife, 2026).

This assay has as its target T1, GST-Hof1-N-terminus (1–350 aa) (S. cerevisiae, UniProt Q05080 1-350).
T1 construct: Hof1, S. cerevisiae, N-terminal fragment with the F-BAR domain, residues 1-350, amplified from genomic DNA and cloned into pGEX-5X1; also called GST-Hof1^F-BAR; GST-Hof1^(N (1–350)); source: E. coli BL21-DE3, purified on glutathione Sepharose 4B and kept on the resin; not shown: GST, N-terminal, kept
T1 sequence (looked up): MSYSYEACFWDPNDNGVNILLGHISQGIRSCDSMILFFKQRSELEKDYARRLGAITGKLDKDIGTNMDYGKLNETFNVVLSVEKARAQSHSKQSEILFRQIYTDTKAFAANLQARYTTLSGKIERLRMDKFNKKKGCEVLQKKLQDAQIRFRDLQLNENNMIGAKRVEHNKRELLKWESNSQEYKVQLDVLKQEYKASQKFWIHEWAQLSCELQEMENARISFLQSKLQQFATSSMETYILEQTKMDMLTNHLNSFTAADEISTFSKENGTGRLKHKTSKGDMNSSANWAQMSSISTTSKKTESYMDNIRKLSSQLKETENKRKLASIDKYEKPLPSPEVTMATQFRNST
As to the kind of experiment: pull-down; GST-Hof1 (1-350) (~3 µg) on glutathione beads mixed with ~1 µg 6His-bdSUMO-Gin4-KA1; PBS, 0.2% NP-40, 1 hr at 4°C; washed with PBS, 1% NP-40; western blot with anti-His and anti-GST. The settings on record: both partners purified.

B1: 6His-bdSUMO-Gin4-KA1 (1003–1142 aa) (domain or fragment, S. cerevisiae, UniProt Q12263 1003-1142, looked up)
chain: GSQAKDHSKDHLKEHKQDKNTAIGNGSFFRKFSKSSDKTMELYAKISAKQLFNGLEKLLRGWTQYGLKNIKSHPNNLTLTGKLSSDNIFSLRSTLFEVNIYPRGKMSVVQFKKVSGSFKAVKKLVNEVENVLNKEGVLQK
notes: also called 6xHis-bdSUMO-Gin4^KA1; source: E. coli BL21-DE3, purified (Ni-NTA, buffer exchange); not shown: His6, N-terminal, kept; bdSUMO, N-terminal, kept
B1: the binding result was “binds”.
